Results reported in patent US20120027722A1.

How the values were obtained:
[1] = target: HCV E1E2 glycoproteins, genotype 2a (J6) (Hepatitis C virus genotype 2a (J6)); assay: cell-based or functional assay
[2] = target: HCV E1E2 glycoproteins, genotype 1b (Con1) (Hepatitis C virus genotype 1b (Con1)) (UniProt Q9WMX2); assay: cell-based or functional assay
[3] = target: Peptide D3; details: remark: other sources report otherwise

Sequence of HCV E1E2 glycoproteins, genotype 1b (Con1) (Hepatitis C virus genotype 1b (Con1)) (Q9WMX2 192-383 limits assumed, chain 1 of 2): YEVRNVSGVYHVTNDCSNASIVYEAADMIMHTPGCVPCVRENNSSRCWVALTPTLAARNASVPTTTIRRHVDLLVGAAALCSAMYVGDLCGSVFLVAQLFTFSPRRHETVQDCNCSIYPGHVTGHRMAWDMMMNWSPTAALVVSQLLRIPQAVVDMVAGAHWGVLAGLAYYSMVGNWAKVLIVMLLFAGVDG
Sequence of HCV E1E2 glycoproteins, genotype 1b (Con1) (Hepatitis C virus genotype 1b (Con1)) (Q9WMX2 384-746 limits assumed, chain 2 of 2): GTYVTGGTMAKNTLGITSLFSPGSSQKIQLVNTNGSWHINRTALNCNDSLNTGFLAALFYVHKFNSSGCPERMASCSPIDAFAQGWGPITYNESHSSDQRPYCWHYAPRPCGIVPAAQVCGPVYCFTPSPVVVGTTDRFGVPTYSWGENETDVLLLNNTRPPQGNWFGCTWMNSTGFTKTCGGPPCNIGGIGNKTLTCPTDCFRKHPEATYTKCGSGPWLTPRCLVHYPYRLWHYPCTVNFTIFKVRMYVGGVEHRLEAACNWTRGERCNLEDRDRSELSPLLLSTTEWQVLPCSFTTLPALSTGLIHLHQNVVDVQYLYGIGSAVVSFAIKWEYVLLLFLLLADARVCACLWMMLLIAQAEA

B1: AP33 antibody (as used in Example 2) (antibody, V domains shown)
VH: EVQLQESGPSLVKPSQTLSLTCSVTGDSITSGYWNWIRKFPGNKLEYMGYISYSGSTYYNLSLRSRISITRDTSKNQYYLQLNSVTTEDTATYYCALITTTTYAMDYWGQGTSVTVS
VL: NIVLTQSPVSLAVSLGQRATISCRASESVDGYGNSFLHWFQQKPGQPPKLLIYLASNLNSGVPARFSGSGSRTDFTLTIDPVEADDAATYYCQQNNVDPWTFGGGTKLEIK
EC50, neutralization of J6 HCVpp entry (Huh-7.5, luciferase) [1]: 2.07 µg/mL | EC50, neutralization of Con1 HCVpp entry (Huh-7.5, luciferase) [2]: 1.42 µg/mL

B2: chimeric AP33 antibody (Vh/Vl) (antibody, V domains shown)
VH: EVQLQESGPSLVKPSQTLSLTCSVTGDSITSGYWNWIRKFPGNKLEYMGYISYSGSTYYNLSLRSRISITRDTSKNQYYLQLNSVTTEDTATYYCALITTTTYAMDYWGQGTSVTVS
VL: NIVLTQSPVSLAVSLGQRATISCRASESVDGYGNSFLHWFQQKPGQPPKLLIYLASNLNSGVPARFSGSGSRTDFTLTIDPVEADDAATYYCQQNNVDPWTFGGGTKLEIK
EC50 (read off the curve) [3]: 0.02 µg/mL
